Laboratory results as given in patent US20140221623A1 (Ablynx, published 2014).
Where a chain is given by its changes, count along the chain named. “And” between values parts separate entries of the source, which are not always exact repeats. Equal entries are not always repeated.

B1: IL6R09 (VHH)
VHH: EVQLVESGGGLVQAGGSLRLSCAASGRTSSSYDMTWYRQVPGKEREFVAVISWSGGSTYYADSVKGRFTISRDNAKNTVYLQMNSLKPEDTAIYYCNAYTGGGDDYWGQGTQVTVSS
notes: also called PMP34G9; PMP 34 G9
B2: IL6R14 (VHH)
VHH: EVQLVESGGGLVQPGGSLRLSCAASGFSLDYYAIGWFRQAPGKEREGVSCMDSSSGTTSTYYSDSVKGRFTISRDDAKNTVYLQMNSLKPEDTAVYYCAADGHLNWGQRYVPCSQISWRGWNDYWGQGTQVTVSS
notes: also called PMP40H5; PMP 40 H5
B3: IL6R13 (VHH)
VHH: EVQLVESGGGLVQPGGSLRLSCAASGFTFDDYGMSWVRQAPGRATEWVSAISWNGNNTYYTESMKGRFTISRDNAKNTVYLQMNSLKPEDTAVYYCVKGSTAIVGVPPTYPDEYDYWGQGTQVTVSS
notes: also called PMP35H4; PMP 35 H4
B4: IL6R03 (VHH)
VHH: EVQLVESGGGLVQAGGSLRLSCAASGSIFKVNAMGWYRQAPGKQRELVAGIISGGSTNYADSVKGRLTISRDNAKNTVYLQMNSLKPEDTAVYYCSFVTTNSDYDLGRDYWGQGTQVTVSS
notes: also called PMP31A4; PMP 31 A4
B5: IL6R02 (VHH)
VHH: EVQLVESGGGLVQAGGSLRLSCAASGRTFSSYDMGWYRQAPGKEREFVAVISRSGSSTYYADSVKGRFTISRDNAKNTVYLQMNSLKPEDTAIYYCKAEVVAGDYDYWGQGTQVTVSS
notes: also called PMP30C11; PMP 30 C11
B6: IL6R08 (VHH)
VHH: EVQLVESGGGLVQPGGSLRLSCVASGFSLDYYVIGWFRQAPGKEREGVSCISSSDGSTYYADSVKGRFTISRDNAKNTVYLQMNSLKPEDTAVYYCAADLLRTPEFCVDSAPYDYWGQGTQVTVSS
notes: also called PMP34A12; PMP 34 A12
B7: IL6R11 (VHH)
VHH: EVQLVESGGGLVQAGGSLRLSCAASGFTFDDYAIGWFRQAPGKEHEGVSCISSSDGSTYYADSVKGRFTISSDNAKNTVYLQMNSLKPEDTAVYYCAAERDVPARSLCGSYYWYDYRGQGTQVTVSS
notes: also called PMP35E11; PMP 35 E11
B8: IL6R06 (VHH)
VHH: EVQLVESGGGLVQAGGSLRLSCAASGNIFDDNTMGWTWNRQPPGKQRELVAIIATDGSTNYADSVKGRFTISRDNAKNTVYLQMNSLKPEDTAVYYCNLFSLRLGRDYWGQGTQVTVSS
notes: also called PMP32E2; PMP 32 E2
B9: IL6R10 (VHH)
VHH: EVQLVESGGGLVQAGGSLRLSCAASGRTFSSYDMGWYRQAPGKEREFVAVIHWSSGSTYYADPVKGRFTISRDNAKNTVYLQMNSLKPEDTAIYYCNAFLPGPEGFHDYWGQGTQVTVSS
notes: also called PMP35C10; PMP 35 C10
B10: IL6R05 (VHH)
VHH: EVQLVESGGGLVQPGGSLRLSCAASGFTFGSYDMSWVRQAPGKGPEWVSAINSGGGSTYYADSVKGRFTISRDNAKNTLYLQMNSLKPEDTAVYYCATDWRYSDYDLPLPPPGDYWGQGTQVTVSS
notes: also called PMP32E10; PMP 32 E10
B11: IL6R07 (VHH)
VHH: EVQLVESGGGLVQPGGSLRLSCAASGFTLDYGAIGWFRQAPGKEREGVSCISSSTGSTYYADSVKGRFTISRDNGKNTVYLQMNSLKPEDTAVYYCAADKMWSPCLVAANEEALFEYDYWGQGTQVTVSS
notes: also called PMP33A3; PMP 33 A3
B12: IL6R12 (VHH)
VHH: EVQLVESGGGLVQAGGSLRLSCAASGRTFSSYDMGWYRQAPGKEREFVAIITWNSSTYYADSVKGRFTISRDNAKNTVYLQMNSLKPEDTAIYYCNAQYGLGYAEDYWGQGTQVTVSS
notes: also called PMP35F4; PMP 35 F4
B13: Reference Fab (Fab, V domains shown)
VH: QVQLQESGPGLVRPSQTLSLTCTVSGYSITSDHAWSWVRQPPGRGLEWIGYISYSGITTYNPSLKSRVTMLRDTSKNQFSLRLSSVTAADTAVYYCARSLARTTAMDYWGQGSLVTVSS
VL: DIQMTQSPSSLSASVGDRVTITCRASQDISSYLNWYQQKPGKAPKLLIYYTSRLHSGVPSRFSGSGSGTDFTFTISSLQPEDIATYYCQQGNTLPYTFGQGTKVEIKR
notes: Anti-human IL-6R Fab according to EP 0 628 639, made in E. coli periplasm; also called Tocilizumab-Fab
B14: IL6R01 (VHH)
VHH: EVQLVESGGGFVQAGGSLRLSCIASGDNFSINRMGWYRQALGKQRELVAIITNHGSTNYADAVKGRFTISRDYAKNTVYLQMNGLKPDDTAVYYCNAYISEVGTWRDDYWGQGIQVTVSS
notes: also called PMP28E11; PMP 28 E11
B15: PMP 28 B1 (VHH)
VHH: EVQLVESGGGLVQPGGSLRLSCAASGFTLNYYAIGWFRQAPGKEREGVSCISSSDGSTYYADSVKGRFTISRDNAKNTFYLQMNSLKPEDTAVYYCAAEGLGDSDSPCGAAWYNDYWGQGTQVTVSS
notes: also called PMP28B1(t)
B16: PMP 34 E10 (VHH)
VHH: EVQLVESGGGLVQAGGSLRLSCAASGRTFSSYAMGWGRQAPGKEREFVATISWSGGSTYYADSVKGRFTISRDNAKNTVYLQMNSLKPEDTAVYYCAADLAEFKYSDYADYWGQGTQVTVSS
B17: PMP 34 E9 (VHH)
VHH: EVQLVESGGGLVQPGGSLRLSCAASGFTLDYYAIGWFRQAPGKEREGVSCISSSDGSTYYADSVKGRFTISRDNAKNTVYLQMNSLKPEDTAAYYCATDRSVYYCSGDAPEEYYWGQGTQVTVSS
notes: also called PMP34E9(t)
B18: PMP 34 G3 (VHH)
VHH: B17 VHH with G47R, D108G

Target: T1, IL6-R on U266 cells (human, UniProt P08887 20-468)
T1 sequence (looked up): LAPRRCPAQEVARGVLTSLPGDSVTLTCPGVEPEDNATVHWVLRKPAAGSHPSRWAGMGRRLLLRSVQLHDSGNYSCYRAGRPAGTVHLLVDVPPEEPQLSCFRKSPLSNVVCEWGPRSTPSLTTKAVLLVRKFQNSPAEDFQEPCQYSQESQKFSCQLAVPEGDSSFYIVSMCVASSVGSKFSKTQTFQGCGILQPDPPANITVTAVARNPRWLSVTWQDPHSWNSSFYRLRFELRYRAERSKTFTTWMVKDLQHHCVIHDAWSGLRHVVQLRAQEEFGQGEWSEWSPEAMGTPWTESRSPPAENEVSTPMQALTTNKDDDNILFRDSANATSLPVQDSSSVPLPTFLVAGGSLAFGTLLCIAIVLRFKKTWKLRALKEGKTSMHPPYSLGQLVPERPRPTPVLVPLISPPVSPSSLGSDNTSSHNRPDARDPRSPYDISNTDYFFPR
Assay: cell-based or functional assay

Row | Molecule | IC50, XG-1 proliferation with 1 mg/mL human serum albumin [nM]
1 | B1 | 2.98
2 | B2 | 0.751
3 | B3 | 1.32
4 | B4 | 17.5

Target: T1, IL6-R on U266 cells
Assay: cell-based or functional assay
Remark: another data set of the same source

Row | Molecule | IC50, TF-1 proliferation [nM]
5 | B1 | 10
6 | B5 | 29.7
7 | B6 | 42.9
8 | B2 | 1.75
9 | B7 | 6.62
10 | B8 | 77.2
11 | B9 | 9.15
12 | B3 | 7.2
13 | B4 | 28.1
14 | B10 | 19.9
15 | B11 | 35
16 | B12 | 6.92

Target: T2, Human soluble IL6-R (human, UniProt P08887 20-358)
T2 construct: Bought soluble receptor; biotinylated in some Alphascreen assays; also called sIL6-R; hIL-6R
T2 sequence (looked up): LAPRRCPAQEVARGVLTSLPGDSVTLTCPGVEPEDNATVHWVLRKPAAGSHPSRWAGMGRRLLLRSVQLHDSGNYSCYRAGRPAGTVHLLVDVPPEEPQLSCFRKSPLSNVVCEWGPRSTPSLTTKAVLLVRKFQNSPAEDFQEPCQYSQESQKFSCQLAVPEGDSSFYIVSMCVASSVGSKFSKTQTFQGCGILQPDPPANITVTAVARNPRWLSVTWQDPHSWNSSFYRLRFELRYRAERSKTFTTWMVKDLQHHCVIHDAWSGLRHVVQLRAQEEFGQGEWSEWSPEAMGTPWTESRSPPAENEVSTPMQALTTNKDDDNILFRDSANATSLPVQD
Assay: SPR (Biacore 3000), IL6-R on CM5 chip

Row | Molecule | Kd | koff | kon
17 | B1 | 2.01 nM and 1.17 nM | 0.0013 s⁻¹ and 0.00139 s⁻¹ and 0.00129 s⁻¹ | 641000 M⁻¹ s⁻¹ and 1.11e+06 M⁻¹ s⁻¹
18 | B5 | 5.9 nM | 0.00294 s⁻¹ and 0.00495 s⁻¹ | 840000 M⁻¹ s⁻¹
19 | B6 | 10.2 nM | 0.00197 s⁻¹ | 194000 M⁻¹ s⁻¹
20 | B2 | 0.25 nM | 0.0001 s⁻¹ and 0.000114 s⁻¹ | 402000 M⁻¹ s⁻¹
21 | B13 | 0.86 nM | 0.00066 s⁻¹ | 768000 M⁻¹ s⁻¹
22 | B7 | 0.87 nM and 1.85 nM | 0.00034 s⁻¹ and 0.000396 s⁻¹ and 0.000417 s⁻¹ | 391000 M⁻¹ s⁻¹ and 215000 M⁻¹ s⁻¹
23 | B8 | 7.1 nM |  | 1.07e+06 M⁻¹ s⁻¹
24 | B14 | 0.418 nM | 0.00011 s⁻¹ | 262000 M⁻¹ s⁻¹
25 | B9 | 1.27 nM | 0.000526 s⁻¹ and 0.000509 s⁻¹ | 414000 M⁻¹ s⁻¹
26 | B3 | 0.53 nM and 0.79 nM | 0.000121 s⁻¹ and 0.000109 s⁻¹ and 0.000178 s⁻¹ | 231000 M⁻¹ s⁻¹ and 137000 M⁻¹ s⁻¹
27 | B4 | 3.03 nM | 0.00147 s⁻¹ and 0.0016 s⁻¹ | 484000 M⁻¹ s⁻¹
28 | B10 | 9.79 nM | 0.00141 s⁻¹ and 0.00127 s⁻¹ | 144000 M⁻¹ s⁻¹
29 | B11 |  | 0.000242 s⁻¹ | 
30 | B12 | 1.71 nM | 0.00116 s⁻¹ and 0.000896 s⁻¹ | 678000 M⁻¹ s⁻¹

Target: T2, Human soluble IL6-R
Assay: Alphascreen, 100 nM Nanobody; competitor Reference-Fab on beads

Row | Molecule | % binding retained in competition with Reference-Fab [%]
31 | B1 | 62
32 | B5 | 86
33 | B6 | 99
34 | B2 | 96
35 | B7 | 40
36 | B8 | 36
37 | B14 | 49
38 | B9 | 102
39 | B3 | 25
40 | B4 | 5
41 | B10 | 64
42 | B11 | 80
43 | B12 | 103

Target: T1, IL6-R on U266 cells
Assay: cell-based or functional assay
Remark: another data set of the same source

Row | Molecule | IC50, XG-1 proliferation [nM]
44 | B1 | 2.75
45 | B5 | 31
46 | B6 | 36.6
47 | B2 | 0.603
48 | B13 | 5.99
49 | B7 | 5.37
50 | B8 | 42
51 | B9 | 2.55
52 | B3 | 1.4
53 | B4 | 16.2
54 | B10 | 7.29
55 | B11 | 50.5
56 | B12 | 2.75

Target: T2, Human soluble IL6-R
Assay: SPR (Biacore), off-rate

Row | Molecule | koff [s⁻¹]
57 | B1 | 0.00139
58 | B15 | 0.00134
59 | B16 | 0.002
60 | B5 | 0.00294
61 | B2 | 0.000114
62 | B17 | 0.000503
63 | B18 | 0.00014
64 | B7 | 0.000417
65 | B8 | 0.000886
66 | B9 | 0.000509
67 | B3 | 0.000178
68 | B4 | 0.0016
69 | B10 | 0.00127
70 | B11 | 0.000242
71 | B12 | 0.000896

Target: T1, IL6-R on U266 cells
Assay: cell-based or functional assay
Remark: another data set of the same source

Row | Molecule | IC50 (+1% HSA), TF-1 proliferation | IC50 (w/o HSA), TF-1 proliferation | IC50, XG-1 proliferation [nM]
72 | MAb BR-6 (antibody) | 0.088 | 0.042 | 0.064
73 | MAb BN-12 (antibody) |  |  | 0.272
